Laboratory results as given in US20250236657A1 (TOSOH, published 2025).
Substitutions are numbered along the chain they refer to.

Columns and labels:
[1] = biological target: AAV vector (AAV5-EGFP), adeno-associated virus serotype 5 (adeno-associated virus serotype 5 (AAV5)); assay: ELISA, AAV5-EGFP coated, culture supernatant, anti-6His, A450
[2] = biological target: AAV vector (AAV5-EGFP), adeno-associated virus serotype 5 (adeno-associated virus serotype 5 (AAV5)); assay: ELISA, AAV5-EGFP coated, culture supernatant, anti-6His, A450; the reference itself
AAV2 S264A = biological target: T1, AAV2 S264A (adeno-associated virus serotype 2 (AAV2), UniProt P03135 1-735); assay: affinity HPLC, AVR10s immobilization gel, linear pH gradient 4.5 to 2.2, AAV2 peak top
T1 construct: Recombinant AAV2 vector particles in filtered cell lysate

AAV2 T503S = biological target: T2, AAV2 T503S (adeno-associated virus serotype 2 (AAV2), UniProt P03135 1-735); assay: as above
T2 construct: Recombinant AAV2 vector particles in filtered cell lysate

AAV2 S267A = biological target: T3, AAV2 S267A (adeno-associated virus serotype 2 (AAV2), UniProt P03135 1-735); assay: as above
T3 construct: Recombinant AAV2 vector particles in filtered cell lysate

AAV2 N382A = biological target: T4, AAV2 N382A (adeno-associated virus serotype 2 (AAV2), UniProt P03135 1-735); assay: as above
T4 construct: Recombinant AAV2 vector particles in filtered cell lysate

AAV2 R471A = biological target: T5, AAV2 R471A (adeno-associated virus serotype 2 (AAV2), UniProt P03135 1-735); assay: as above
T5 construct: Recombinant AAV2 vector particles in filtered cell lysate

AAV2 D528A = biological target: T6, AAV2 D528A (adeno-associated virus serotype 2 (AAV2), UniProt P03135 1-735); assay: as above
T6 construct: Recombinant AAV2 vector particles in filtered cell lysate

AAV2 H271A = biological target: T7, AAV2 H271A (adeno-associated virus serotype 2 (AAV2), UniProt P03135 1-735); assay: as above
T7 construct: Recombinant AAV2 vector particles in filtered cell lysate

AAV2 H271T = biological target: T8, AAV2 H271T (adeno-associated virus serotype 2 (AAV2), UniProt P03135 1-735); assay: as above
T8 construct: Recombinant AAV2 vector particles in filtered cell lysate

AAV2 S267T = biological target: T9, AAV2 S267T (adeno-associated virus serotype 2 (AAV2), UniProt P03135 1-735); assay: as above
T9 construct: Recombinant AAV2 vector particles in filtered cell lysate

AAV2 S384A = biological target: T10, AAV2 S384A (adeno-associated virus serotype 2 (AAV2), UniProt P03135 1-735); assay: as above
T10 construct: Recombinant AAV2 vector particles in filtered cell lysate

[3] = biological target: T11, AAV2 (wild type), serotype 2 AAV with capsid region VP1 of SEQ ID NO: 99 (adeno-associated virus serotype 2 (AAV2), UniProt P03135 1-735); assay: as above
T11 construct: Recombinant AAV2 vector particles (EGFP genome) in filtered cell lysate; the capsid is assembled from VP1, VP2 and VP3

AAV2 Q263A = biological target: T12, AAV2 Q263A (adeno-associated virus serotype 2 (AAV2), UniProt P03135 1-735); assay: as above
T12 construct: Recombinant AAV2 vector particles in filtered cell lysate

AAV2 H271Q = biological target: T13, AAV2 H271Q (adeno-associated virus serotype 2 (AAV2), UniProt P03135 1-735); assay: as above
T13 construct: Recombinant AAV2 vector particles in filtered cell lysate

AAV2 D529E = biological target: T14, AAV2 D529E (adeno-associated virus serotype 2 (AAV2), UniProt P03135 1-735); assay: as above
T14 construct: Recombinant AAV2 vector particles in filtered cell lysate

AAV2 E499A = biological target: T15, AAV2 E499A (adeno-associated virus serotype 2 (AAV2), UniProt P03135 1-735); assay: as above
T15 construct: Recombinant AAV2 vector particles in filtered cell lysate

AAV2 Q385A = biological target: T16, AAV2 Q385A (adeno-associated virus serotype 2 (AAV2), UniProt P03135 1-735); assay: as above
T16 construct: Recombinant AAV2 vector particles in filtered cell lysate

AAV2 D529A [4] = biological target: T17, AAV2 D529A (adeno-associated virus serotype 2 (AAV2), UniProt P03135 1-735); assay: affinity HPLC on AVR10s column, pH gradient 4.5 to 2.2; no elution peak, not adsorbed and passed through
T17 construct: Recombinant AAV2 vector particles in filtered cell lysate

AAV2 H271F [5] = biological target: T18, AAV2 H271F (adeno-associated virus serotype 2 (AAV2), UniProt P03135 1-735); assay: as above
T18 construct: Recombinant AAV2 vector particles in filtered cell lysate

AAV2 G383A [6] = biological target: T19, AAV2 G383A (adeno-associated virus serotype 2 (AAV2), UniProt P03135 1-735); assay: as above
T19 construct: Recombinant AAV2 vector particles in filtered cell lysate

AAV2 D529A [7] = biological target: T17, AAV2 D529A; assay: affinity HPLC on AVR21 column, pH gradient 6.0 to 2.0; no elution peak, not adsorbed and passed through
AAV2 H271F [8] = biological target: T18, AAV2 H271F; assay: as above
AAV2 G383A [9] = biological target: T19, AAV2 G383A; assay: as above

B1: AVR10s_A330C (receptor)
chain: MGSAGESDQITLPKNEVQLNCYVLQEPPKGETSTYDWQLITHPRDYSGEMEGEHSQILKLSNLTPGLYEFKAVVEGQNAHSEGYVNVTVEPEPRKNRPPIAIVSPQFQEISLPTTSTVIDGSQSTDDDKIVQYHWEELKGPLREEKISEDTAILKLSKLVPGNYTFRLTVVDSDGATDSTTANLTVNKAVDHHHHHH
[1]
  Binding activity for AAV5 (vs AVR10s) (ratio (AVR10s = 1)): 1.94

B2: AVR10s_A330L (receptor)
chain: B1 chain with C21L
[1]
  Binding activity for AAV5 (vs AVR10s) (ratio (AVR10s = 1)): 1.53

B3: AVR10s_V332W (receptor)
chain: B1 chain with C21A, V23W
[1]
  Binding activity for AAV5 (vs AVR10s) (ratio (AVR10s = 1)): 3.87

B4: AVR10s_V332Y (receptor)
chain: B1 chain with C21A, V23Y
[1]
  Binding activity for AAV5 (vs AVR10s) (ratio (AVR10s = 1)): 1.5

B5: AVR10s_L333C (receptor)
chain: B1 chain with C21A, L24C
[1]
  Binding activity for AAV5 (vs AVR10s) (ratio (AVR10s = 1)): 1.51

B6: AVR10s_A330Y (receptor)
chain: B1 chain with C21Y
[1]
  Binding activity for AAV5 (vs AVR10s) (ratio (AVR10s = 1)): 2.19

B7: AVR10s_L348C (receptor)
chain: B1 chain with C21A, L39C
[1]
  Binding activity for AAV5 (vs AVR10s) (ratio (AVR10s = 1)): 1.19

B8: AVR10s_Y331C (receptor)
chain: B1 chain with C21A, Y22C
[1]
  Binding activity for AAV5 (vs AVR10s) (ratio (AVR10s = 1)): 1.3

B9: AVR10s_A330V (receptor)
chain: B1 chain with C21V
[1]
  Binding activity for AAV5 (vs AVR10s) (ratio (AVR10s = 1)): 1.83

B10: AVR10s_A330W (receptor)
chain: B1 chain with C21W
[1]
  Binding activity for AAV5 (vs AVR10s) (ratio (AVR10s = 1)): 1.46

B11: AVR10s_A330F (receptor)
chain: B1 chain with C21F
[1]
  Binding activity for AAV5 (vs AVR10s) (ratio (AVR10s = 1)): 1.68

B12: AAV-binding protein AVR10s (polypeptide of SEQ ID NO: 4, with polyhistidine tag) (receptor)
chain: B1 chain with C21A
[2]
  Binding activity for AAV5 (vs AVR10s) (ratio (AVR10s = 1)): 1

B13: AVR10s_A330R (receptor)
chain: B1 chain with C21R
[1]
  Binding activity for AAV5 (vs AVR10s) (ratio (AVR10s = 1)): 1.5

B14: AVR10s_I349N (receptor)
chain: B1 chain with C21A, I40N
[1]
  Binding activity for AAV5 (vs AVR10s) (ratio (AVR10s = 1)): 1.13

B15: AVR10s_Q347S (receptor)
chain: B1 chain with C21A, Q38S
[1]
  Binding activity for AAV5 (vs AVR10s) (ratio (AVR10s = 1)): 1.73

B16: AAV-binding protein AVR10s with cysteine tag (SEQ ID NO: 97), immobilised as AVR10s immobilization gel (receptor)
chain: MGSAGESDQITLPKNEVQLNAYVLQEPPKGETSTYDWQLITHPRDYSGEMEGEHSQILKLSNLTPGLYEFKAVVEGQNAHSEGYVNVTVEPEPRKNRPPIAIVSPQFQEISLPTTSTVIDGSQSTDDDKIVQYHWEELKGPLREEKISEDTAILKLSKLVPGNYTFRLTVVDSDGATDSTTANLTVNKAVDHHHHHHCRNDTCG
modifications: immobilised on a TOYOPEARL carrier with iodoacetamide groups; cysteine tag sequence serving as immobilization tag at positions 220-226
notes: purified on Ni Sepharose and coupled to the carrier; also called AVR10s column
AAV2 S264A
  AVR10s column elution time: 53.7 min
AAV2 T503S
  AVR10s column elution time: 48 min
AAV2 S267A
  AVR10s column elution time: 52.9 min
AAV2 N382A
  AVR10s column elution time: 46.4 min
AAV2 R471A
  AVR10s column elution time: 53.4 min
AAV2 D528A
  AVR10s column elution time: 47.5 min
AAV2 H271A
  AVR10s column elution time: 46.7 min
AAV2 H271T
  AVR10s column elution time: 42.6 min
AAV2 S267T
  AVR10s column elution time: 54.2 min
AAV2 S384A
  AVR10s column elution time: 52.1 min
[3]
  AVR10s column elution time: 54.4 min
AAV2 Q263A
  AVR10s column elution time: 54.4 min
AAV2 H271Q
  AVR10s column elution time: 46.4 min
AAV2 D529E
  AVR10s column elution time: 47 min
AAV2 E499A
  AVR10s column elution time: 53.1 min
AAV2 Q385A
  AVR10s column elution time: 50.9 min
AAV2 D529A [4]
  binding result: no binding
AAV2 H271F [5]
  binding result: no binding
AAV2 G383A [6]
  binding result: no binding

B17: AAV-binding protein AVR21 with cysteine tag (SEQ ID NO: 102), immobilised as AVR21 immobilization gel (receptor)
chain: MGSAGESDQITLPKHEAQLNVYVLLVPPKGEASTYDWQLITHPRDYSGEMEGEHSQILKLSNLTPGLYEYRAVVEGQNAHSEGYVNVTVEPEPRKNRPPIAIVSPQFQEISLPTTSTVIDGSQSTDDDKIVQYHWEELKGPLREEKISEDTAILKLSQLVPGNYTFRLTVVDTDGATDSTTADLTVNKAVDHHHHHHCRNDTCG
modifications: immobilised on a TOYOPEARL carrier with iodoacetamide groups; cysteine tag sequence serving as immobilization tag at positions 220-226
notes: KIAA0319L PKD1 and PKD2 with 21 substitutions; also called AVR21 column
AAV2 D529A [7]
  binding result: no binding
AAV2 H271F [8]
  binding result: no binding
AAV2 G383A [9]
  binding result: no binding
